Test results taken from the nanobody polyreactivity screen of Harvey et al. (2022).

Assay: yeast display, Sf9 membrane polyspecificity reagent, FACS + sequencing; frameworks hold sequencing errors
Procedure, shortened: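 A synthetic nanobody library was expressed on Saccharomyces cerevisiae BJ5465 by galactose induction for 36–48 hours. The library was stained for 1 hour at 4 °C with 10% biotinylated, detergent-solubilized Sf9 membrane reagent and enriched with streptavidin microbeads before FACS. Low and high (top ~1%) gates were set on anti-HA fluorescence for expression and streptavidin fluorescence for reagent binding, and each polyreactivity label reflects the gate of origin.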

| Sequence | polyreactivity (PSR sort gate) |
| --- | --- |
| QVQLVESGGGLVQAGGSLRLSCAASGRTFRRYVMGWDRQSPGKERQLVAAIRWTGGSTYYADSVKGRFTISRDNAKNTVYLKMNSLKPEDTEVYYCAAYIRWSGGFDYWGQGTQVTVSS | high polyreactivity |
| QVQLVESGGGLVQAGGSLRLSCAASGRTFRSNAMGGTTQAPGKERQLVAGITKSGGNTYYADSVKGRFTISRDNAKNTVYLQMTSLKPEDTAVYYCATRYYPLVNYLGYDYWGQGTQVTVSW | low polyreactivity |
| QVQLVESGGGLVQAGGSLRLSCAASGRTFRSNAMGWNIQAPGKERELVAAITRGRRTYYADSVKGRFTISRDNAKNTVYLQMNSMKPEDTAVYYCAGVGRYACRLDYWGQGTQVTVSS | high polyreactivity |
| QVQLVESGGGLVQAGGSLRLSCAASGRTFRSNAMGWYRQAPGKERELVAAIRNSDGSTNYADSVKGRFTISRDNAKNNVYLQMNSLKPEDTAVYYCAASSTVGGITRILYYYWGQGTQVTVSS | high polyreactivity |
| QVQLVESGGGLVQAGGSLRLSCAASGRTFRSNAMGWYRQAPGKERELVATISRRGVSTYYADSVKGRFTISRDNAKNTVYLQMNSLKPEDTAVYYCTLNVGTTSRWSYDYWGQGTQVTVSS | high polyreactivity |
| QVQLVESGGGLVQAGGSLRLSCAASGRTFRSYAMGWYRQAPGKERELVAAIRGGGGRTHYADSVKGRFTISRDNAKNTVYLQMNSLKPEDTAVYYCAAGRPYLESKLYDYWGQGTHVTVSS | high polyreactivity |
| QVQLVESGGGLVQAGGSLRLSCAASGRTFRSYAMGWYRQAPGKERELVAAISQRGGSTYYADSVKGRFTISRDNAKNTVYLQMNSLKPEDTAVYYCATPVRSGYDYWGQGTQVTVSS | high polyreactivity |
| QVQLVESGGGLVQAGGSLRLSCAASGRTFRSYAMGWYRQAPGKERELVAAISSGTSTDYADSVKGRFTISRDNAKNTVYLQMNSLKPEDTAVYYCAYDYWGQGTQVTVSS | low polyreactivity |
| QVQLVESGGGLVQAGGSLRLSCAASGRTFRSYAMGWYRQAPGKERELVAVISGGGTYYADSVKGRFTISRDNAKNTVYLQMNSLKPEDTAVYYCAAQFHFRPFSWTYDYWGQGTQVTVSS | high polyreactivity |
| QVQLVESGGGLVQAGGSLRLSCAASGRTFRSYDMGWYRQAPGKERELVAAISEDGGYTYYADSVKGRFTISRDNAKITVYLQMNSLKPEDTAVYYCAKDRPGPLRWWFLYGYWGQGTQGTVSS | low polyreactivity |
| QVQLVESGGGLVQAGGSLRLSCAASGRTFRSYTMGWYRQAPGKERELVARISSSGGRTYYADSVKGRFTISRDNAKNTVYLQMNSLKPEDTAVYYCAAAIVSYGRNDYWGQGTQVTVSS | high polyreactivity |
| QVQLVESGGGLVQAGGSLRLSCAASGRTFRTYDMGWYRQEPGKERELVAAITSRAGSTYYADSVKGRFTISRDNAKNTVFLQMNRLKPEDTAVYYCAKQYYYGWYWGEDYWGQGSQVTVSS | low polyreactivity |
| QVQLVESGGGLVQAGGSLRLSCAASGRTFRVYAMGGYRQAPGTERELVASISRRGAATYYADSVKGRFTISRDNAKNTVYRQMNSLKPEDTAVSDCAADRPYYSVSPNTEFEYWGQGTQVTVSS | high polyreactivity |
| QVQLVESGGGLVQAGGSLRLSCAASGRTFRVYAMGWYRQAPGKERELVAAITRGGSTYYADSVKGRFTISRDNAKNTVYLQMNSLKPEDTAVYYCATYSHALRYDYWGQGTQVTVSS | high polyreactivity |
| QVQLVESGGGLVQAGGSLRLSCAASGRTFRVYTMGWYRPAPGKERELVAVISGRGGSTSYADSVKGRFTISRDNAKNSVYVQINSLKPEDTAVYYCAALYTQSNSASMYYWGQGTQVTVSS | high polyreactivity |
| QVQLVESGGGLVQAGGSLRLSCAASGRTFRWNAMGLYRQAPGKERELVADITSGGSTYYADSVKGRFTISSDNAKNTVYLQMNSLKPEDTAVYYCKAYYYYQFPAPASKYDYWGQGTQVTVSS | high polyreactivity |
| QVQLVESGGGLVQAGGSLRLSCAASGRTFRWNAMGWYRQAPGKERELVAAITKSGGSTYYADSVKGRFTISRDNAKNTVYLQMNSLIPEDTAVYYCNAEPPLYPWAYPSDSYNFWGQGTQVTVSS | low polyreactivity |
| QVQLVESGGGLVQAGGSLRLSCAASGRTFRWYAMGWSRPAPGKERELVASISRGGSKSYADSVKGRFTISRDNAKNTVYLQMNSLKPEDTAVYYCNAKYRLEMDLGQGTQVTVSS | high polyreactivity |
| QVQLVESGGGLVQAGGSLRLSCAASGRTFRWYAMGWYRQAPGKERELVAAIRRSGGGTYYADSVKGRFTISRDNAKNTVYLQMNSLKPEDTAVYYCNTDYPVYQRGVISDGFDYWGQGTQVTVSS | low polyreactivity |
| QVQLVESGGGLVQAGGSLRLSCAASGRTFRWYPMGWYRQAPGKERELVAAINPGGSTNYADSVKGRFTISRDNANNTVDLQMNSLKPEDSAVYYCNAAGYDALTQNYYWGQGTQVTVSS | low polyreactivity |
| QVQLVESGGGLVQAGGSLRLSCAASGRTFRYAMGWYRQAPGKERELVAAITGSGGSTYYADSVKGRFTISRDNAKNTVYLQMNSLKPEDTAVYYCAAARYDYWGQGTQVTVSS | high polyreactivity |
| QVQLVESGGGLVQAGGSLRLSCAASGRTFRYKAMGWYRQAPGKERELVAAITWNGGRTYYADSVKGRFTISRDNAKNTVYLQMNSLKPEDTAVYYCAAQGTRVDRYPKYDYWGQGTQVTVSS | high polyreactivity |

| Sequence | polyreactivity (PSR sort gate) |
| --- | --- |
| QVQLVESGGGLVQAGGSLRLSCAASGRTFRYNALGWYRQAPGKETELVAAISGRGSSTYYADSVKGRFTISRDNAKNTVYLQMNSLKPEDTAVYYCAALPASVRRPGWHDYWGQGTEVTVSS | high polyreactivity |
| QVQLVESGGGLVQAGGSLRLSCAASGRTFRYNAMGWYRQAPGKERELVAAITWSGGSTYYADSVKGRFTISRDNAKNTVYLQMNSLKPEDTAVYYCNKVTWHQGHDYWGQGTQVTVSS | low polyreactivity |
| QVQLVESGGGLVQAGGSLRLSCAASGRTFRYNAMGWYRQAPGKERELVASITSGGSTNYADSVKGRFTISRDNAKNTVYLQMNSLIPEDTAVYYCAADERRPYWQHSIGSGRPFDYWGQGTQVTVSS | low polyreactivity |
| QVQLVESGGGLVQAGGSLRLSCAASGRTFRYNAMGWYRQAPGKERELVATISSSGGSTSYADSVKGRFTISRDNAKNTVYLQMNSLKPEDTAVYYCAADEWGVRSEYDYWGQGTQVTVSS | low polyreactivity |
| QVQLVESGGGLVQAGGSLRLSCAASGRTFRYNTMGWYRQAPGKERELVAAITWSGGRTYYADSVKGRFTISRDNAKNTVYLQMNSLKPEDTAVYYCNADVPYSRSIYGFYYWGQGTQVTVSS | high polyreactivity |
| QVQLVESGGGLVQAGGSLRLSCAASGRTFRYNVMGWYRQAPGKERELVASISRISGSTYYADSVKGRFTISRDNAKNTVYLQMNSLKPEDTADYYARAAGEYDYWGQGTQVTVSS | high polyreactivity |
| QVQLVESGGGLVQAGGSLRLSCAASGRTFRYYAMGWYRQAPGKERELVAAISQTGARTYYADSVKGRFTISRDNAKNTVYLQMNSLKPEDTAVYYCNAYSRSGHQSDGYDYWGQGTQVTVSS | high polyreactivity |
| QVQLVESGGGLVQAGGSLRLSCAASGRTFRYYAMGWYRQAPGKERELVAAISSGGNTYYADSVKGRFTISRDNAKNTVYLQMNSLKPEDTAVYYCAAKVHYSAHRFGYWGQGTQVTVSS | high polyreactivity |
| QVQLVESGGGLVQAGGSLRLSCAASGRTFRYYAMGWYRQAPGKERELVAAISSGGSTNYADSVKGRFTISRDNAKITVYLQMNSLKPEDTAVYYCAALWSGNKFNYWGQGTQVTVSS | low polyreactivity |
| QVQLVESGGGLVQAGGSLRLSCAASGRTFRYYAMGWYRQAPGKERELVAAISSSGDRTYYADSVKGRFTISRDNAKKTVYLQMNSLKPEDTAVYYCAADRGARGDYWGQGTQVTVSS | high polyreactivity |
| QVQLVESGGGLVQAGGSLRLSCAASGRTFRYYAMGWYRQAPGKERELVAAITSGGSTYYADSVKGRFTISRDNAKNTVYLQMNSLKPEDTAVYYCAAVPAGLWATYPQFRYGYWGQGTQVTVSS | high polyreactivity |
| QVQLVESGGGLVQAGGSLRLSCAASGRTFRYYAMGWYRQAPGKERELVADISWSGGRTTYADSVKGRFTISRDNAKNTVYLQMNSLKPEDTAVYYCAKVLYYPSNDYWGQGSQVTVSS | high polyreactivity |
| QVQLVESGGGLVQAGGSLRLSCAASGRTFRYYAMGWYRQAPGKERELVATISSGGSTNYADSVKGRFTISRDNAKNTVYLQMNSLKPEDTAVYYCNARRSTDPARYYWGQGTQVTVSS | high polyreactivity |
| QVQLVESGGGLVQAGGSLRLSCAASGRTFRYYTMGWYRPAPGKEREFVAAISSTGGTYYADSVKGRFTISRDNAKNTVYLQMNSLKPEDTAVYYCAATFIQVVVNVQLYDYDYWGQGTQVTVSS | low polyreactivity |
| QVQLVESGGGLVQAGGSLRLSCAASGRTFRYYTMGWYRQAPGKEREFVAAISSTGGTYYADSVKGRFTISRDNAKNTVYLQMNSQKPEDTAVYYCAATVIQVVVNVQLYDYDYWGQGTEVTVSS | low polyreactivity |
| QVQLVESGGGLVQAGGSLRLSCAASGRTFRYYTMGWYRQAPGKERELVASISWSGGSTYYADSVKGRFTISRDNAKNTVYLQMNSLKPEDTAVYYCNAVYGYRGVTNMDYWGQGTQVTVSS | high polyreactivity |
| QVQLVESGGGLVQAGGSLRLSCAASGRTFRYYVMGWYIQAPAKERELVARISYSAGSTYYADSVKGRFTISRDNAKKTVYFQMNSLKPEDTAVDYCNAGGNFKDYGHYYWGQCTQVTVSS | high polyreactivity |
| QVQLVESGGGLVQAGGSLRLSCAASGRTFRYYVMGWYRPATGTERELVAGISGSGGNTYYADSVKGRFTISRDNAKNTVYLQMNSLKPEDTAVYYCNAYSPYAEYDYWGQGTQVTVSS | high polyreactivity |
| QVQLVESGGGLVQAGGSLRLSCAASGRTFRYYVMGWYRQAPGKERELVASITWRGTSTYYADSVKGRFTISRDNAKNTVYLQMNSLKPEDTAVYYCNAQGVYFRWSGYDYWGQGTQVTVSS | high polyreactivity |
| QVQLVESGGGLVQAGGSLRLSCAASGRTFRYYVMGWYRQAPGKERELVATITSNGDSTYYADSVKGRFTISRDNAKNTVYLQMNSLKPEDTAVYYCAVRWRDYRGSYRGFEYWGQGTQVTVSS | high polyreactivity |
| QVQLVESGGGLVQAGGSLRLSCAASGRTFSAYAMGWYRQAPGKERELVAAISRRGGSTYYADSVKGRFTISRDNAKNTVYLQMNSLKPEDTAVYYCAAKIYYRSRAEMDWGQGTQVTVSS | high polyreactivity |
